Assay [1] addresses complement component C3b, serum-derived (human) (UniProt P01024).
For a further assay, the target named is C3d C3d (Homo sapiens) (UniProt P01024). In words: biolayer interferometry. Conditions: cited from earlier work. (BLI is a label-free optical method that tracks binding on a fibre tip over time.)
The target in assay [2] is complement component C3b, serum-derived (human) (UniProt P01024). The source holds these as a separate data set.

We go through seven substances from paper PMC5096715.

C3d C3d (Homo sapiens), sequence (P01024 1002-1303): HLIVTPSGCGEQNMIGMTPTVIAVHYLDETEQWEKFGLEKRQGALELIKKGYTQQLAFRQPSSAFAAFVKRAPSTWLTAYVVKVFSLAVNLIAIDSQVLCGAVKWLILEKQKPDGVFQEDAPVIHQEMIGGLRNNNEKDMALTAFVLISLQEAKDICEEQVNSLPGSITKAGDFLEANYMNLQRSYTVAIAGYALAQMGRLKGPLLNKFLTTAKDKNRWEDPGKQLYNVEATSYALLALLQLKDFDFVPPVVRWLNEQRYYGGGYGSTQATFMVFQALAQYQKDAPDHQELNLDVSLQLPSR
complement factor H (CFH), recombinant, sequence (P08603 19-1231): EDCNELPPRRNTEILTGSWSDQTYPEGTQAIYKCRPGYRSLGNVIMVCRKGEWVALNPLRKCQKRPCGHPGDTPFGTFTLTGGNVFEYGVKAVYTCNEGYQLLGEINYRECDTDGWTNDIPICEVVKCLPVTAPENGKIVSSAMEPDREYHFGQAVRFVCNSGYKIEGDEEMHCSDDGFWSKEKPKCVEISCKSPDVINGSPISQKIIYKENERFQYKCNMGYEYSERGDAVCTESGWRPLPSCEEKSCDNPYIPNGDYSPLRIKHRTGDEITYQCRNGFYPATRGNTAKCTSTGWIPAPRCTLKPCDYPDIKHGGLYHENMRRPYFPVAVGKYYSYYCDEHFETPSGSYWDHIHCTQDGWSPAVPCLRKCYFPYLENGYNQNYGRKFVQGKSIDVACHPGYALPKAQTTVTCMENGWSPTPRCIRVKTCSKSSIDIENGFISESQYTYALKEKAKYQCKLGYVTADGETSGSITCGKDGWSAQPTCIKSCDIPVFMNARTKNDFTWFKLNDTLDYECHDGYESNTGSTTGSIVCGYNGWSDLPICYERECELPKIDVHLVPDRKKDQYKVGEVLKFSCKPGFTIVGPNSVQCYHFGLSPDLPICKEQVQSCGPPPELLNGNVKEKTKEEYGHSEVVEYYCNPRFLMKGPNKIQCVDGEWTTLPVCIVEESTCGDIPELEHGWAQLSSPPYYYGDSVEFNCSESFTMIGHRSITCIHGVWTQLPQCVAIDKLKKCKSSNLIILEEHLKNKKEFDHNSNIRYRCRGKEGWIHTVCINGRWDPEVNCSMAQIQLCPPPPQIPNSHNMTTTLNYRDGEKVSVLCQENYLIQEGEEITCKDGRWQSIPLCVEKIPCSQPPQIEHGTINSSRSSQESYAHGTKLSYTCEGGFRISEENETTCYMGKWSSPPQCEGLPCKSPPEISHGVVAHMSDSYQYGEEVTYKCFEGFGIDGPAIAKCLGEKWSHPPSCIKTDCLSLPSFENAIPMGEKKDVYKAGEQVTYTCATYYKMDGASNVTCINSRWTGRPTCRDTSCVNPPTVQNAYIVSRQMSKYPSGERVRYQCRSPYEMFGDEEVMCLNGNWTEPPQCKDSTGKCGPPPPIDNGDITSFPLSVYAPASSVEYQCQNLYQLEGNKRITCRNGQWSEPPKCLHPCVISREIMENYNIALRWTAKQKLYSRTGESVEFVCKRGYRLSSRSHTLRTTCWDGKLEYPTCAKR
CFHR3, sequence (Q02985 19-330): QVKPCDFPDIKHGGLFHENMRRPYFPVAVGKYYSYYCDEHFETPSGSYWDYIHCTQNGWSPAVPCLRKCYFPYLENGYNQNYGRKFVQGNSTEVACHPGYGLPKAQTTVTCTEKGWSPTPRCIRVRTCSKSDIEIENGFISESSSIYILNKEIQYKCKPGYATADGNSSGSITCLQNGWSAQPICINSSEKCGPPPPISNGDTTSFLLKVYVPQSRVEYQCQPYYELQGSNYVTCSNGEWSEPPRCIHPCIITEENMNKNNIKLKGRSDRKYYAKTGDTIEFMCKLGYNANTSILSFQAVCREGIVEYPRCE
complement factor H-related protein 1 (CFHR1), recombinant wild-type, sequence (Q03591 19-330): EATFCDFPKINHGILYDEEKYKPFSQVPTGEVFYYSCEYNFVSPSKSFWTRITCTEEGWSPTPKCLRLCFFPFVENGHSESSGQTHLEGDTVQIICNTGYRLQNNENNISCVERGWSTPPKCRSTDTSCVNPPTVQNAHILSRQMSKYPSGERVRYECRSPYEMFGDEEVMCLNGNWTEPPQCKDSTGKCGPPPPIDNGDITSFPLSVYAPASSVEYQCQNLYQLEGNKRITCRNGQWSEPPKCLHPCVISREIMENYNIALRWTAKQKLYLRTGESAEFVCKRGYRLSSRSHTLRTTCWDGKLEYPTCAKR
CFHR1, sequence (Q03591 19-330): as above

In the case of “complement factor H-related protein 1 (CFHR1), recombinant wild-type (from UniProt Q03591 19-330) (natural protein)”, the alternative pathway hemolysis of guinea pig erythrocytes in 10% NHS with 140 nM CFH plus 2 μM wild-type CFHR1 (competition with CFH for C3b; ~8% with CFH alone) in assay [1] is 23%.

As to “CFHR1 Mut1 (N216A/D218A) (from UniProt Q03591 19-330) (natural protein)”, the alternative pathway hemolysis of guinea pig erythrocytes in 10% NHS with 140 nM CFH plus 2 μM CFHR1 Mut1 (competition with CFH for C3b; ~8% with CFH alone) in assay [1] turned out to be 8%.

In general, Kd refers to the equilibrium constant for the complex coming apart. Turning to CFHR3 (from UniProt Q02985), in the assay with C3d C3d (Homo sapiens), the Kd was 1100 nM.

On to “CFHR1 Mut2 (Q238A/Y241A) (from UniProt Q03591 19-330) (natural protein)”, for which the alternative pathway hemolysis of guinea pig erythrocytes in 10% NHS with 140 nM CFH plus 2 μM CFHR1 Mut2 (competition with CFH for C3b; ~8% with CFH alone) in assay [1] worked out at 6%.

On to “CFHR1 Mut3 (Y52S/S54Y/Y57E) (from UniProt Q03591 19-330) (natural protein)”, for which the alternative pathway hemolysis of guinea pig erythrocytes in 10% NHS with 140 nM CFH plus 2 μM CFHR1 Mut3 (competition with CFH for C3b; ~8% with CFH alone) in assay [2] worked out at 12%.

For the substance CFHR1 (from UniProt Q03591), the dissociation constant (Kd) with C3d C3d (Homo sapiens) is 1200 nM.

“complement factor H (CFH), recombinant (from UniProt P08603-1 19-1231) (natural protein)” yielded an alternative pathway hemolysis of guinea pig erythrocytes in 10% NHS with 140 nM CFH added (~58% without added CFH) in assay [1] of 8%.
